# Measurements reported in patent publication US20120208744A1, “ANTI-MICROBIAL AGENTS AND COMPOSITIONS AND METHODS OF PRODUCTION AND USE THEREOF” (The Penn State Research Foundation, priority 2011, published 2012).
# Experiments:
# Type in all cases: cell-based, Escherichia coli
# [1] = tested on: ferrichrome-mediated iron transport; test: [55Fe]-ferrichrome uptake, ExbD cys substitutions, with or without CuoP treatment; conditions: for activity: initial rate of ferrichrome-mediated iron transport relative to wild-type plasmid-encoded ExbD: non-reducing conditions, substitution expressed to native ExbD levels, strain RA1045
# Procedure: Since CuoP treatment catalyzed almost 100% dimer formation for some of the cys substitutions, attempts were made to determine activity of the dimeric form. […] The amount of CuoP was reduced 10-fold to 0.03 mM and cells had to be suspended in fully supplemented M9 medium as described in Experimental Procedures.
# Activity assays. Initial rates of [^55Fe]-ferrichrome uptake were determined. For assays where cultures were treated with copper-(1,10-phenanthroline)3, harvested cells were pelleted, resuspended in 1×M9 supplemented as described above (no sodium propionate added), and treated with an equal volume 0.06 mM CuoP ([final] 0.03 mM) or 0.5 mM sodium phosphate buffer, pH 7.4 (buffer only) for 5 min, at 37° C. with aeration. Cells were pelleted, and the standard iron transport protocol was followed starting with resuspension in the assay medium.
# In all assays the CuoP solution was removed and assays carried out in identical media, but the medium present during the 5 min CuoP treatment was important and differentially affected activity of a wild-type strain.
# [2] = tested on: ferrichrome-mediated iron transport; test: as above; conditions: 0.03 mM CuoP, cells in unsupplemented 1xM9
# [3] = tested on: TonB; test: Proteinase K accessibility assay in spheroplasts; conditions: wild-type W3110 spheroplasts; pmf collapsed; 60 μM CCCP or 10 mM DNP
# Description: Proteinase K accessibility assays. For reversibility assays, spheroplasts were generated from wild-type cells (W3110) and treated with CCCP to collapse pmf. […] Samples were harvested and treated with proteinase K or left untreated. […] To re-establish pmf for the remaining sample, the proteinase K untreated, CCCP-treated spheroplasts were subsequently pelleted, washed, and resuspended in buffer without CCCP. These washed spheroplasts were divided in half. One sample was re-treated with CCCP, and one was treated with solvent only (DMSO). Both were then treated with proteinase K. As a control, whole cells were also treated with proteinase K or left untreated. All manipulations occurred at 4° C.
# For standard assays, spheroplasts were prepared and treated with proteinase K as described previously (Larsen et al, 1999, Mol. Microbiol. 31, 1809-1824). The effect of protonophores was examined after treatment of spheroplasts with 60 μM carbonylcyanide-m-chlorophenylhydrazone (CCCP) or 10 mM DNP compared to an equal volume of solvent only, dimethyl sulfoxide (DMSO). After limited proteolysis, TCA precipitated samples were visualized on immunblots of 11% or 15% SDS polyacrylamide gels with TonB-specific monoclonal antibodies or ExbD-specific polyclonal antibodies, respectively. All manipulations occurred at 4° C.
# [4] = tested on: TonB-ExbD complex; test: Formaldehyde crosslinking in spheroplasts; conditions: CCCP-treated W3110 spheroplasts, 60 μM
# Procedure: Formaldehyde crosslinking in spheroplasts. Spheroplasts were prepared as above for standard assays and treated with DMSO solvent or 60 μM CCCP. A CCCP-treated sample was also treated with proteinase K for 15 min as described above. For formaldehyde crosslinking, spheroplasts were pelleted and resuspended in 100 mM sodium phosphate buffer, pH 6.8 containing 0.25M sucrose and 2 mM MgSO4. For CCCP-treated spheroplasts, CCCP was maintained in the crosslinking buffer. Samples were treated with 1% monomeric paraformaldehyde (inverting to mix) for 15 min at room temperature. Pellets were solubilized at 60° C. in Laemmli sample buffer.
# [5] = tested on: 55Fe-ferrichrome transport; test: Transport of 55Fe-loaded ferrichrome (ExbD deletion variants)
# Procedure: For assays in 1×M9, 37 μM Fe (proteinase K accessibility, [^55Fe]-ferrichrome uptake, formaldehyde crosslinking, and sucrose density gradient fractionation), the following percentages of arabinose were added at subculture to induce expression of ExbD variants near native levels of ExbD: pKP660=no inducer, pKP761=0.0008%, pKP760=0.0008%, pKP759=0.3% glucose (to repress basal levels of overexpression), pKP758=0.002% glucose (to repress basal levels of overexpression), pKP762=0.0006%, pKP757=0.0007%, pKP756=0.006%, pKP755=0.008%, pKP754=0.15%, pKP753=0.18%, pKP752=0.2%, pKP763=0.18%, pKP764=0.2%, pKP724=0.006%.
# Activity assays: Spot titer assays were performed. Initial rates of [^55Fe]-ferrichrome uptake were determined.
# [6] = CuoP-treated (0.03 mM, 5 min, supplemented M9)
# [7] = overexpressed ExbD cys substitution
molecule,measurement,setting,value
"copper-(1,10-phenanthroline)3 [CuoP, reference compound]",effect on iron transport activity of a wild-type strain,[1]; 0.03 mM CuoP in supplemented 1xM9,did not inhibit activity
same,iron transport of a wild-type strain remaining after CuoP treatment,[2],about 25%
O=[N+]([O-])c1ccc(O)c([N+](=O)[O-])c1 [DNP],TonB conformation (proteinase K sensitivity) after protonophore treatment,[3],Identical results
"N#CC(C#N)=NNc1cccc(Cl)c1 [CCCP, carbonylcyanide-m-chlorophenylhydrazone]",TonB conformation (proteinase K sensitivity) after protonophore treatment,[3],detection of the previously observed proteinase K resistant conformation of TonB
same,TonB-ExbD formaldehyde crosslinked complex,[4],not detected
ExbD I102C: ExbD cysteine substitution I102C (pKP1010) (protein) MAMHLNENLDDNGEMHDINVTPFIDVMLVLLIIFMVAAPLAIVDVKVNLPASTSTPQPRPEKPVYLSVKADNSMFIGNDPVTDETMITALNALTEGKKDITCFFRADKTVDYETLMKVMDTLHQAGYLKIGLVGEETAKAK,activity: initial rate of ferrichrome-mediated iron transport relative to wild-type plasmid-encoded ExbD,[1],80%
"ExbD: wild-type E. coli ExbD protein, plasmid-encoded (pKP1194, exbD in pBAD24) (protein, listed as Escherichia coli) MAMHLNENLDDNGEMHDINVTPFIDVMLVLLIIFMVAAPLAIVDVKVNLPASTSTPQPRPEKPVYLSVKADNSMFIGNDPVTDETMITALNALTEGKKDITIFFRADKTVDYETLMKVMDTLHQAGYLKIGLVGEETAKAK",Initial Rate of Transport,"[5]; 55Fe-loaded ferrichrome, plasmid-encoded ExbD variant in strain KP1522",672.2 ± 15.97
same,% Wild-type Activity,"[5]; initial rate of variant strain divided by initial rate of wild-type strain x 100, strain KP1522",100%
ExbD K108C: ExbD cysteine substitution K108C (pKP1016) (protein) MAMHLNENLDDNGEMHDINVTPFIDVMLVLLIIFMVAAPLAIVDVKVNLPASTSTPQPRPEKPVYLSVKADNSMFIGNDPVTDETMITALNALTEGKKDITIFFRADCTVDYETLMKVMDTLHQAGYLKIGLVGEETAKAK,activity: iron transport relative to wild-type ExbD,[1]; [6],at least 70%
same,activity: initial rate of ferrichrome-mediated iron transport relative to wild-type plasmid-encoded ExbD,[1],~110%
same,activity: iron transport relative to wild-type ExbD,[1]; [7],110%
ExbD M116C: ExbD cysteine substitution M116C (pKP1024) (protein) MAMHLNENLDDNGEMHDINVTPFIDVMLVLLIIFMVAAPLAIVDVKVNLPASTSTPQPRPEKPVYLSVKADNSMFIGNDPVTDETMITALNALTEGKKDITIFFRADKTVDYETLCKVMDTLHQAGYLKIGLVGEETAKAK,activity: iron transport relative to wild-type ExbD,[1]; [6],20%
same,activity: iron transport relative to wild-type ExbD,[1]; buffer only treated samples,about 90%
ExbD Y112C: ExbD cysteine substitution Y112C (pKP1020) (protein) MAMHLNENLDDNGEMHDINVTPFIDVMLVLLIIFMVAAPLAIVDVKVNLPASTSTPQPRPEKPVYLSVKADNSMFIGNDPVTDETMITALNALTEGKKDITIFFRADKTVDCETLMKVMDTLHQAGYLKIGLVGEETAKAK,activity: iron transport relative to wild-type ExbD,[1]; [6],5%
same,activity: iron transport relative to wild-type ExbD,[1]; buffer only treated samples,about 90%
same,activity: iron transport relative to wild-type ExbD,[1]; [7],90%
ExbD G96C: ExbD cysteine substitution G96C (pKP1004) (protein) MAMHLNENLDDNGEMHDINVTPFIDVMLVLLIIFMVAAPLAIVDVKVNLPASTSTPQPRPEKPVYLSVKADNSMFIGNDPVTDETMITALNALTECKKDITIFFRADKTVDYETLMKVMDTLHQAGYLKIGLVGEETAKAK,activity: initial rate of ferrichrome-mediated iron transport relative to wild-type plasmid-encoded ExbD,[1],85%
